Laboratory results as given in PMC10653388.

Biological target: endogenous S. cerevisiae TREX complex (S. cerevisiae) (UniProt P17629)
Assay: negative-stain EM

stoichiometry N: 2
Substance: endogenous S. cerevisiae TREX complex, P17629;P53552;P33441;O13539;P53851;Q07478;Q12159;P25555;P38922
